These results are taken from article PMC11357225.

Values joined by “and” are separate entries in the source; they are usually repeats but may differ in a detail not shown here. Equal entries are not always repeated.

The target of assay [1] is human lactoferrin (human). Kind of assay: SPR. In general terms: SPR reads the build-up and loss of mass on a sensor chip optically.
The target of assay [2] is human lactoferrin (human).
For assay [3], the target named is human lactoferrin (human). In words: native gel or EMSA. For orientation: In EMSA bound probe runs differently from free probe, usually more slowly.

As a reminder, the Kd is the free concentration of one partner at which half of the binding sites on the other are occupied at equilibrium, for simple one-to-one binding. A high value points to a looser complex. The substance “SARS-CoV-2 spike protein (S-protein), ancestral Wuhan-like variant (from UniProt P0DTC2 14-1213) (natural protein)” registered a Kd in assay [1] of 4.32 nM. The substance further showed a percent of input bound in assay [2] of 60%.
Usually stoichiometry N stands for a count of units in the complex or per binding partner. Usually koff stands for the rate constant with which the complex falls apart. Higher therefore signals a short-lived complex. The term kon denotes the second-order rate constant of association. “receptor-binding domain of the SARS-CoV-2 S-protein, ancestral Wuhan-like variant (from UniProt P0DTC2) (domain or fragment)” came in with a stoichiometry N in assay [3] of 1. In assay [1], the Kd was 1260 nM and 1310 nM; the dissociation rate constant (koff) was found to be 0.308 s⁻¹; the kon amounted to 245000 M⁻¹ s⁻¹. This substance also showed a percent of input bound in assay [2] of 30%.
